In PMC12697862:

Target: IP3R1 channel fragment E
Test: co-IP (IP: Flag, immunoblot for Myc) with band quantification
Details: LV-GRP75-Flag(mutant) with IP3R1E-Myc; n = 5; means ± SEM; read off a plot

Row | Substance | response (relative level of Myc/Flag (IP group))
1 | GRP75, transfected for co-IP (from UniProt P38647) K567Q; K612Q | 0.47
2 | GRP75, transfected for co-IP (from UniProt P38647) K567R; K612R | 1
